In patent US20160264664A1 (Ablynx, published 2016):

Experiments:
human P2X4 = target: T1, human P2X4 (human, UniProt Q99571 1-388); experiment: flow cytometry, Nanobody pre-incubated with anti-Myc-FITC
T1 construct: whole, on cells; also called hP2X4
T1 sequence (looked up): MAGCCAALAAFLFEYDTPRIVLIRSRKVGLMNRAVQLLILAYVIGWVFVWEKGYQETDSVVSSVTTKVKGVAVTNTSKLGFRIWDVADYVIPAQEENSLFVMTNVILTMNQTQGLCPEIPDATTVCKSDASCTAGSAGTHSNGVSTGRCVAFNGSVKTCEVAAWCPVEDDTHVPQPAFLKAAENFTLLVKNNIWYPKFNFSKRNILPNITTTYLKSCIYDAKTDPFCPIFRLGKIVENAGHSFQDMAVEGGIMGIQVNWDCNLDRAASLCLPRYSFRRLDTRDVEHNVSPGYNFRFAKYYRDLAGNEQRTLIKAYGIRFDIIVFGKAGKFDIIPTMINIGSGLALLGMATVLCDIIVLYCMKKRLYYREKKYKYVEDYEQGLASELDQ

human P2X7 = target: T2, human P2X7 (human, UniProt Q99572 1-595); experiment: as above
T2 construct: on transfected Hek293 cells; also called hP2X7
T2 sequence: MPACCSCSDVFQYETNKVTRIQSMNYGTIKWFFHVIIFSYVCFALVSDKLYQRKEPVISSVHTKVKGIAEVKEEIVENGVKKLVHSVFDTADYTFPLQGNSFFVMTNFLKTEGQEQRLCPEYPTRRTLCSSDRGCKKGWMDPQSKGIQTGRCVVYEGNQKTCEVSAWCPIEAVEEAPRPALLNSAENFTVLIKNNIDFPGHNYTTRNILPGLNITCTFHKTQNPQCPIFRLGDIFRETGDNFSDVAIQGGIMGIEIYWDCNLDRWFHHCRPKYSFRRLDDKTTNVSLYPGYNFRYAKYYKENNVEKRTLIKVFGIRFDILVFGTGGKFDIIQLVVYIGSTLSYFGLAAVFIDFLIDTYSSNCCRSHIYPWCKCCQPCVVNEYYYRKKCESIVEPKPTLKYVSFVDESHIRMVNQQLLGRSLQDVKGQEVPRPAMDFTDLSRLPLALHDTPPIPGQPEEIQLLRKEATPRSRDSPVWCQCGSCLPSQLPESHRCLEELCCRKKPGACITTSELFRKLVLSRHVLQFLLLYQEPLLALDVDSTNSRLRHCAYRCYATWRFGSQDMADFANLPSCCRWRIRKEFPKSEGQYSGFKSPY

mouse P2X7 [1] = target: T3, mouse P2X7 (mouse, UniProt Q9Z1M0 1-595); experiment: phage ELISA on fixed mP2X7-CHO vs untransfected CHO cells; phage ELISA, phage-displayed Nanobody, Cho P2X7 vs wt signal ratio
T3 construct: on transfected CHO or Hek293 cells, or endogenous on Yac-1 cells; also called mP2X7; mouse purinoceptor P2X7
T3 sequence: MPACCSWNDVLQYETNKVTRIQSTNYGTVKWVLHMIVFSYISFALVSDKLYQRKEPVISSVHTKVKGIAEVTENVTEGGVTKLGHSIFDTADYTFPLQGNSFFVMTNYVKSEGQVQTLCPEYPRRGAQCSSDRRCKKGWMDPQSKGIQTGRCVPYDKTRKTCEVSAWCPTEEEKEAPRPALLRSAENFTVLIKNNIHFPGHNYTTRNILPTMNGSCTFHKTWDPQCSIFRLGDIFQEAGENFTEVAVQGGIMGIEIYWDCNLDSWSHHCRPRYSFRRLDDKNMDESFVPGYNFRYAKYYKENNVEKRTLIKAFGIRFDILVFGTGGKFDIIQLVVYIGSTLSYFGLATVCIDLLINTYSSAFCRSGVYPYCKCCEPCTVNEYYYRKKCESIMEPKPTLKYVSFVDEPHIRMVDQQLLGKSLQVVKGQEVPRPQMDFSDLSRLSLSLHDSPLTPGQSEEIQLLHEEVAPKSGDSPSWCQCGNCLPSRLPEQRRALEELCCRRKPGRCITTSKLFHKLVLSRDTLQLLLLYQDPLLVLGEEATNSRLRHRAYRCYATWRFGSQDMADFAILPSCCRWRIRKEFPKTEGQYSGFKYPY
Protocol: (§1) Sub-confluent cells were rinsed with PBS and fixed using 4% paraformaldehyde in PBS for 10 minutes at RT. Fixed cells were washed three times with PBS, and blocked with 2% BSA in PBS for 2 hours. Following blocking, 10-fold diluted culture supernatant containing phage was added and incubated for 1 hour. Cell-bound phage was detected via mouse anti-M13-HRP-conjugate (GE Healthcare, Cat nr. E2886). Rat mAb Hano43 was used as positive control.

mouse P2X7 [2] = target: T3, mouse P2X7; experiment: phage ELISA on fixed mP2X7-CHO vs untransfected CHO cells (minimally 2-fold)
Protocol: as §1

mouse P2X7 [3] = target: T3, mouse P2X7; experiment: Table A-1 'P2X7 function'; screening on mP2X7-expressing cells
mouse P2X7 [4] = target: T3, mouse P2X7; experiment: flow cytometry, periplasmic extract pre-incubated with anti-myc-FITC, on mP2X7-Hek293 cells;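 also: periplasmic extract diluted 10-fold and premixed 45 min at 4 °C with FITC anti-myc antibody, giving pseudo-bivalent Nanobodies, before binding to the cells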
Protocol: Ten-fold diluted PE were pre-incubation with 0.5 μg anti-myc FITC-conjugated antibodies (AbD Serotec, cat no. MCA2200F) (creating pseudo-bivalent Nanobodies in order to increase binding strength) in 0.1 ml PBS/10% FCS for 45 minutes at 4° C. […] Alternatively, sequential staining of 10-fold diluted PE with anti-myc FITC-conjugated antibodies was done after incubation with the cells.

mouse P2X7 [5] = target: T3, mouse P2X7; experiment: cell-based or functional assay
mouse P2X7 mutant R151A = target: T4, mouse P2X7 mutant R151A (mouse, UniProt Q9Z1M0 1-595); experiment: flow cytometry, 1 µM Nanobody on transiently transfected Hek293 cells, normalised to Hano43 staining
T4 construct: transiently transfected Hek293 cells
T4 sequence: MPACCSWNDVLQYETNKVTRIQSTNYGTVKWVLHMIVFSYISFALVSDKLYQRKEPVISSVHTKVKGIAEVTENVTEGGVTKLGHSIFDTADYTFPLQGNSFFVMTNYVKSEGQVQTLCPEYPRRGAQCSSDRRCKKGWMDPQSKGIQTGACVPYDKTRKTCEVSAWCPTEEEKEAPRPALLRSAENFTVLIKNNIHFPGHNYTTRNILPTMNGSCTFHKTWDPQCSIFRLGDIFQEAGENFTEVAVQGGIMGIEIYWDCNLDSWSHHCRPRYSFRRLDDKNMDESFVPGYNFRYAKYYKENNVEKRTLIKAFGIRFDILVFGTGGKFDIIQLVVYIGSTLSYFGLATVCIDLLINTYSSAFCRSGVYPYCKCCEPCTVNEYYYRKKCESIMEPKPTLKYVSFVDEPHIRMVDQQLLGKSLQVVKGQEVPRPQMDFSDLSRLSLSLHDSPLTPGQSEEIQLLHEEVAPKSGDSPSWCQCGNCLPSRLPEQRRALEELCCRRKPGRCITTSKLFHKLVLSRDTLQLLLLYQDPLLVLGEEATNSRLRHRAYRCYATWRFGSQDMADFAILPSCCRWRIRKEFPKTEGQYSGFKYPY
Protocol: For flow cytometric assays, detection of Nanobodies was performed via anti-Myc and subsequent goat anti-mouse-PE conjugate, while an estimation of P2X7 expression densities was obtained via staining with rat monoclonal Hano43 followed by secondary anti-rat-PE conjugate.

mouse P2X7 [6] = target: T3, mouse P2X7; experiment: phage ELISA on fixed mP2X7-CHO vs untransfected CHO cells;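 also: phage culture supernatant diluted 10-fold, applied for 1 h to paraformaldehyde-fixed, BSA-blocked cells in 96-well plates, with bound phage read via HRP-linked anti-M13 antibody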
Protocol: as §1

mouse P2X7 [7] = target: T3, mouse P2X7; experiment: phage ELISA, mP2X7-CHO vs control CHO cells
Protocol: as §1

| Binder | binding result (human P2X4) | binding result (human P2X7) | binding result (mouse P2X7 [2]) | further results |
| --- | --- | --- | --- | --- |
| P2X7PMP13F6 (VHH, family 20; on phage or c-myc/His6-tagged in assays) VHH: EVQLVESGGGLVQPGGSLRLSCAASGFTFSTNIMTWVRQAPGKGLEWISTINSGGGTTTYADSVRGRFTISRDNAKNMLYLQMSSLKPEDTALYYCITPRGVKGRGTQVTVSS | no binding (tested: 147 nM) | no binding (tested: 147 nM) | – | Fold Cho P2X7/wt (phage ELISA) (mouse P2X7 [1]): 20 fold |
| P2X7PMP7E8 (VHH, family 8; on phage or c-myc/His6-tagged in assays) VHH: EVQLVESGGGLVQAGGSLRLSCAASGRTFSSSPVGWFRQAPGKERDFVATISWNGVDTHYLDSVKGRFTISRDNALNTVHLQMHILKPEDTALYYCAASTSGSAYLPYRVYQYDSWGQGTQVTVSS | – | – | binds | – |
| P2X7PMP7F5 (VHH, family 8; on phage or c-myc/His6-tagged in assays) VHH: EVQLVESGGGLVQAGGSLRLSCAASGRTFSSSPVGWFRQAPGKERDFVATISWNGVDTHYLDSVKGRFTISRDNALNTVHLQMHILKPEDTALYYCAASTSGSAYLPYRVHQYDSWGQGTQVTVSS | – | – | binds | – |
| P2X7PMP4G4 (VHH, family 4; on phage or c-myc/His6-tagged in assays) VHH: EVQLMESGGGLVQAGGPLRLSCAASGRTVSDYGMGWFRQAPGKEREFVASINWSGTYTRYIDSVEGRFTISRDNTENTLYLQMNNLKAEDTAVYYCAYFLGPNWYSDYGRPSSYDFYGQGTQVTVSS | – | – | binds | – |
| P2X7PMP19A7 (VHH, family 4; on phage or c-myc/His6-tagged in assays) VHH: KVQLVESGGGLVQAGGSLRLSCAASGRTVSDYGMGWFRQAPGKLREFVASINWSGIYTRYIDSVEGRFTISRDNTKNTLYLQMNNLRAEDTAVYYCAYFLGPNWYSNYGRPSSYDFYGQGTQVTVSS | – | – | binds | – |
| P2X7PMP19D12 (VHH, family 4; on phage or c-myc/His6-tagged in assays) VHH: EVQLVESGGGLVQAGGSLRLSCAASGRTVSDYGMGWFRQAPGKLREFVASINWSGIYTRYIDSVEGRFTISRDNTKNTLYLQMNNLKAEDTAVYYCAYFLGPNWYSNYGRPSSYGFYGQGTQVTVSS | – | – | binds | – |
| P2X7PMP20B8 (VHH, family 4; on phage or c-myc/His6-tagged in assays) VHH: EVQLVESGGGLVQAGGSLRLSCAASGRTVSDYGMGWFRQAPGKECEFVASINWSGTYTRYIDSVEGRFTISRDNTENTLYLQMNNLKAEDTAVYYCAYFLGPNWYSDYGRPSSYDFYGQGTQVTVSS | – | – | binds | – |
| P2X7PMP2C4 (VHH, family 1; on phage or c-myc/His6-tagged in assays) VHH: EVQLVESGGDVVQAGGSLRLSCLASGFTFDDYAIGWFRQAPGKEREGISCISSTGNVFYADSVKGRFTISSDKEKNTLYLQMNSLKPEDTAVYHCAAGHFTVDSGKVLLRTDISSWGQGTQVTVSS | no binding (tested: 147 nM) | no binding (tested: 147 nM) | – | Fold Cho P2X7/wt (phage ELISA) (mouse P2X7 [1]): 4 fold |
| P2X7PMP13F4 (VHH, family 12; on phage or c-myc/His6-tagged in assays) VHH: EVQLVESGGGLVQSGGSLRLSCAGSGFSYYIIGWFRQAPGKEREEVSCIRVTDGSTYHTNSVKGRFTMSRDNAENTVYLQMNSLKPEDTAVYSCATECQRWAYPNRIGARGQGTQVTVSS | – | – | binds | – |
| P2X7PMP13E9 (VHH, family 22; on phage or c-myc/His6-tagged in assays) VHH: EVQLVESGGGLVQPGESLRLSCTASRFDLDYYDIAWFRQAPGKEREGVSCSFTNDGSTYYADSVKGRFTMSRNNDHRTVYLQMTSLQPEDTAVYTCAVGPLTRRRQCVPGDFSMDFWGEGTLVTVSS | – | – | binds | – |
| P2X7PMP16F5 (VHH, family 29; on phage or c-myc/His6-tagged in assays) VHH: EVQLVESGGGLVQAGGSLRLSCAASGPTTFGRYTMGWFRQAPGREREFVAAISWIGGRTYYVDVVKGRFTISRDNAKKMVYLQMNSLKPDDTAVYHCAAAFQALGSPREYDYWGQGTQVTVSS | – | – | – | binding result (mouse P2X7 [3]): binds |
| P2X7PMP8G12 (VHH, family 5, 3; on phage or c-myc/His6-tagged in assays; also called 8012) VHH: KVQLVESGGGLVQAGGSLRLSCAASGSFFRVNNMAWYRQGPGKQRELVADITRGDRTNYADSVNGRFTISRDNVRNTVYLQMNGLKPEDTAVYYCYATIELGVLEPRDYWGQGTQVTVSS | no binding (tested: 147 nM) | no binding (tested: 147 nM) | – | MFI FACS (pre-Myc incubation) (mouse P2X7 [4]): 166 MFI; ATP IC50 by 2 uM NB (head prints 'mM'; ligand titration at fixed Nanobody, CD62L shedding, Yac-1 cells) (mouse P2X7 [5]): 0.29 mM; IC50 (nM) against 20 uM NAD (CD62L shedding, Yac-1 cells) (mouse P2X7 [5]): 82 nM; IC50 (nM) against 100 uM ATP (CD62L shedding, Yac-1 cells) (mouse P2X7 [5]): 55 nM; reduction of binding against WT mP2X7 (mouse P2X7 mutant R151A): > 90%; Fold Cho P2X7/wt (phage ELISA) (mouse P2X7 [6]): 36 fold; absorption ratio (ELISA) (mouse P2X7 [7]): 36 ratio |
| P2X7PMP7H6 (VHH, family 11; on phage or c-myc/His6-tagged in assays) VHH: EVQLVESGGGLVQPGGSLRLSCVVSGSMYRIDNMGWYRQAPGKQRELVATVTRGDITNYADSVKGRFTIGRDNAKNTVYLQMNSLKPADTAVYYCNIDSYIIGAGVRDYWGRGTQVTVSS | no binding (tested: 147 nM) | no binding (tested: 147 nM) | – | ATP IC50 by 2 uM NB (head prints 'mM'; ligand titration at fixed Nanobody, CD62L shedding, Yac-1 cells) (mouse P2X7 [5]): 0.494 mM; IC50 (nM) against 20 uM NAD (CD62L shedding, Yac-1 cells) (mouse P2X7 [5]): 208 nM; IC50 (nM) against 100 uM ATP (CD62L shedding, Yac-1 cells) (mouse P2X7 [5]): 123 nM; reduction of binding against WT mP2X7 (mouse P2X7 mutant R151A): > 90%; Fold Cho P2X7/wt (phage ELISA) (mouse P2X7 [6]): 23 fold |
| P2X7PMP6B7 (VHH, family 16; on phage or c-myc/His6-tagged in assays) VHH: EVQLVESGGGLVQAGGSLRLSCVVSGRTFSAMGWFRQAPGKEREFVATVGWNPMNSYYGDSVKGRFTIFRDNAKNTVYLQMNSLKPEDTAVYYCAGSGSLLDVTSEAVYTDWGQGTQVTVSS | no binding (tested: 147 nM) | no binding (tested: 147 nM) | – | reduction of binding against WT mP2X7 (mouse P2X7 mutant R151A): > 90%; Fold Cho P2X7/wt (phage ELISA) (mouse P2X7 [6]): 24 fold |
| P2X7PMP6D7 (VHH, family 7; on phage or c-myc/His6-tagged in assays) VHH: EVQLVESGGGLVQAGGSLRLSCAASGRTFSSLAMGWLRQAPGKEREFVSGISRGGTSTYYADSVKGRLTISRDNAKNTMYLQMNSLKPEDTAVYYCAGSPVLSIVLDTRGLEYWGQGTQVTVSS | – | – | binds | – |
